The source of these data is the DeepSol protein solubility set.

This data set in a line: soluble on expression in E. coli; label from the status in PepcDB or PDB records.
With “MEELKELRKEIDRIDEEILRLLNERAKLAKRIGEIKSKANLPIHVPEREREIFEKILRLNKEVYGGVFPQEALVHIYREIISACLSLEKKIKVAYLGPKATFTHQAALEFFGFSAHYTPCSTIRDVFVEVETKRADYGVVPVENTIEGVVNYTLDMFLESDVKIAGEIVIPITLHLLSASDSIENVEKVYSHKMALAQCRSWLEKNLPSVQVIEVESTAKACEIALEDERAGAVASEVAAYTYHLNILARNIQDSGDNFTRFLVIAKRDLKPTGSDKTSILFGVKDEPGALYKALEVFYKHGINLTKIESRPSKKKAWDYVFFVDLEGHKEEERVEKALKELKEKTQFLKVLGSYPKALLQE”, the “soluble on expression in E. coli” value was “soluble”. The same measure for “MNKNLHPIFAKRIQQVLDENGWSMADLSRRVMLSHTSVRKWASGTSVASGERLKRLSAVTGRPEYWFFMEPGDESEGERAEPKPRVLDEKEETLLSLFNQLPEAEKLRVILHTKAVLQEMDLLKNNVFDLINDLKK”: “not soluble”. “MQVLHVCSEMFPLLKTGGLADVIGALPAAQIADGVDARVLLPAFPDIRRGVTDAQVVSRRDTFAGHITLLFGHYNGVGIYLIDAPHLYDRPGSPYHDTNLFAYTDNVLRFALLGWVGAEMASGLDPFWRPDVVHAHDWHAGLAPAYLAARGRPAKSVFTVHNLAYQGMFYAHHMNDIQLPWSFFNIHGLEFNGQISFLKAGLYYADHITAVSPTYAREITEPQFAYGMEGLLQQRHREGRLSGVLNGVDEKIWSPETDLLLASRYTRDTLEDKAENKRQLQIAMGLKVDDKVPLFAVVSRLTSQKGLDLVLEALPGLLEQGGQLALLGAGDPVLQEGFLAAAAEYPGQVGVQIGYHEAFSHRIMGGADVILVPSRFAPCGLTQLYGLKYGTLPLVRRTGGLADTVSDCSLENLADGVASGFVFEDSNAWSLLRAIRRAFVLWSRPSLWRFVQRQAMAMDFSWQVAAKSYRELYYRLKLEHHHHHH”: the “soluble on expression in E. coli” value was “soluble”. The result for “MQLVVARIGRAHGIKGEVTVEVRTDEPELRLGPGAVLATDPASVGPLTIETGRVHSGRLLLRFEGVRDRNGAEALRNTLLIAEVDPDEVPEDPDEYYDHQLMDLDVVTKDGTEVGRITEISHLPSQDLFVVERSDGSEVYIPFVEEIVVEIDLEEQRAVIDPPPGLIDDRAEVDSSDTEAATEADALEHHHHHH” reads “soluble”; that for “SNAQDVPVTQVMTPRPVVFRVDATMTINEFLDKHKDTPFSRPLVYSEQKDNIIGFVHRLELFKMQQSGSGQKQLGAVMRPIQVVLNNTALPKVFDQMMTHRLQLALVVDEYGTVLGLVTLEDIFEHLVGE”, “soluble”; that for “MMDEEGAALPVWSRRLQQLTERSGLSQAELARRAGMSRDTYNRYCRGLTRPPRKKVLALAELFGVETWEIDPLEAGIAALRRESERSLEALGEQPIPSTPPYTLSPPSSGDPRMMHLRVDVDVRIETALRIAELLNREGSS”, “not soluble”. The result for “MLQPKRTKFRKVHKGRNRGIASGTEVSFGTYGLKAVGRCRLTARQIEAARRAMSRAVKRQGKIWIRVFPDKPITEKPLEVRMGKGKGNVEYWVALIQPGKVLYEMDGVSEEVARNAFALAAAKLPVKTTFVTKTVMLEHHHHHH” reads “not soluble”; that for “HHHHDYDIPTTENLYFQGHMTIHKKGQAHWEGDIKRGKGTVSTESGVLNQQPYGFNTRFEGEKGTNPEELIGAAHAACFSMALSLMLGEAGFTPTSIDTTADVSLDKVDAGFAITKIALKSEVAVPGIDASTFDGIIQKAKAGCPVSQVLKAEITLDYQLKS”, “soluble”; that for “MPLPPHLSDRVVALQPSLTLAISARAKALQQEGRDICSLSAGEPDFNTPEFIIDATVKALRDGITRYGPAAGDPELREAIATKLSKENTVPTNAEQVLVTNGGKQAIFNLFQVILNPGDEVLIPAPYWLSYPEMARLAGAKVTTLPSTPENGFCLDLNNLEASIGPKTRLLLLNSPGNPTGRVMARKELETLADLLRDHPQILVMSDEIYEFILEEGQQHYSFSAIAPDLSNRTFIVNGFAKGWAMTGWRLGYLAGPADAVKAATALQSQSTSNVCSFAQRGALAALQGSRECVKKMVKSYNTRRELLTSGLLSLEGMSLVPPKGAFYAFPKLPPESLDSVSFCEQALENHGLAMVPGAAFGDDSCVRLTCAVSPETICDGLERLRKALKQS”, “not soluble”.

For “GMANLLSTCTSESGNIQHISPQNAGWEYVGFDVWQLKAGESITLPSDERERCLVLVAGLASVKAADSFFYRIGQRMSPFERIPAYSVYLPHHTEAKVTAETDLELAVCSAPGFGELPVRLISPQEVGVEHRGKGRNQRLVHNILPDSQLADSLLVVEVYTNAGATSSWPAHKHDTAVEGQETYLEETYYHRFNPPQGFCLQRVYTDDRSLDECMAVYNRDVVKVPKGYHPVATIAGYDNYYLNVMAGPLRKWRFTWEENHAWINSPDYPR”, the “soluble on expression in E. coli” value is “soluble”. Take “MSLNNTPRYPQRVRNDLRFRELTVLRVERISAGFQRIVLGGEALDGFTSRGFDDHSKLFFPQPDAHFVPPTVTEEGIVWPEGPRPPSRDYTPLYDELRHELAIDFFIHDGGVASGWAMQAQPGDKLTVAGPRGSLVVPEDYAYQLYVCDESGMPALRRRLETLSKLAVKPQVSALVSVRDNACQDYLAHLDGFNIEWLAHDEQAVDARLAQMQIPADDYFIWITGEGKVVKNLSRRFEAEQYDPQRVRAAAYWHAKEGGSHHHHHH”: the “soluble on expression in E. coli” value is reported as “soluble”.

Turning to “MPRDPLIGIVGKPSSGKSTTLNSLTDAGAAVGAFPFTTIEPNQATGYLQVECACSRFGKEDLCKPNYGWCSKGKRHIPIKLLDVAGLVPGAHSGRGLGNKFLDDLRHADALIHVVDVSGTTDAEGKNTRGYDPLNDIEWLQDEIRLWVEGNLKKRWGSIVRKHTATKSSIVDTLQAQFGGYGSHAPMIQKALDRLKGLPPLEKWDDEWITRVVKSFMMEKFPTVLALNKIDHPDADKNVSKIMLKYPDTKAVLTSAVTEVFLRKLKKQGFILYEEGTEFVDTFEDEPDKLKPLDDKILNRIENIRDLVLYRFGSTGVVQVLQAATDILGLIPVYTVKNIQTFTGGNGTNVFRDCFLVKRGTPVGKVARYIMGGEVTIASIETVGGVRVSEESLVEPGKNDILGFKIAPRSA”, the “soluble on expression in E. coli” value is “soluble”. The result for “MPVSLLKAHEAEMWEVHFHPSNPDHLFTCSEDGSLWHWDASTNAPEKSSLFHQGGRSSTFLSHSLSNQAGVHQSLVSSWLSTDPAKDRIEITSLLPSRTLSVNSLDVLGPCLVCGTDAEAIYVTRQLFS” reads “not soluble”; that for “MGSSHHHHHHSSGLVPRGSMAGVDPFTGNSAYRSAASKTMNIYFPKKEAVTFDQANPTQILGKLKELNGTAPEEKKLTEDDLILLEKILSLICNSSSEKPTVQQLQILWKAINCPEDIVFPALDILRLSIKHPSVNENFCNEKEGAQFSSHLINLLNPKGKPANQLLALRTFCNCFVGQAGQKLMMSQRESLMSHAIELKSGSNKNIHIALATLALNYSVCFHKDHNIEGKAQCLSLISTILEVVQDLEATFRLLVALGTLISDDSNAVQLAKSLGVDSQIKKYSSVSEPAKVSECCRFILNLL”, “soluble”. The same measure for “MNVLKQQITASIAKDIAFRLGAELNDEEADIFADGYNAAMLQNCNVVTSGKPLTITLPDTSSKAFWSSTGKNETFHPETYKRQVKEAIERSCVIAGIGVEVK”: “not soluble”; for “MAHHHHHHMDNSIKIKSAFLKENVGVKITGPCDEGFGLVMVPHIIINVDTRNTDIQLGKKSSEINYGIKLRKKGKDEYEEKVGIDLLKNVCETGKNFKFVAYIKGDELIIKWKVIEEGNIPIDIKKFKIKRMSPPITSIQVFSSMSDEKSFVLENKNYVVTNNMPEKCEALATNCFLSGNIDIEKCYQCSLLVENDSKSDVCYNFISRENKEKLNEERFKVKGSTEYEESVESELKGAIDLLISSFYKSDGENGENVLISFEDLNSTLEDDIINFCSLLKLVDLSGTFMNHQIGTTADAFNNIVKLLKEHKEEDEFVLRTKLRNPALCMKNVDDWVKSRCGLLTSDDSYVVIKKNSDTNGKNENNESNDEEYDGVIDLSTNENGNVKSIQFNDDIYCNDDYCNRWKNENNCISKIGVEDQGNCASSWAFASKLHFETLRCMKGYDHLGISALYLTNCSKGKISKRCTEGGNPSEFLEIVSNSGFLPTEFDYPYFYALVENSCPSGLNKWINLWEDVKLFDYKYEPNSIGSKGYSVYKSEMFKDNMDEYVKMIKSEIKNKGSVIAYINAQSVLTYDFNGKNILNMCGSKTTDHSINVIGYGHYKNKEGEEKSYWLVRNSWGYYWGDEGNFKVDMYGPSNCNYHFINTVLVFNIDIPMMNNNENNKKGLYNYFPKYTHEFYHNFYDQNFGSDNKISLINSNGSNKNDVNNAYTVHGQSGETEVQPSQLRSTANQDSNRGAVTSDPLRTQPETTSTSVKKMDVFQVLKHVKNSKIKVGLIKYDNDDEIGAHHSCTRAYSFDPEKYDECVEFCRKNWEQCKDKPSPGFCLTKLDESKGCFFCYV”: “not soluble”; for “MGHHHHHHSHMAGLQRLASHLPVGVMLPHNTTEAPGPHSAKQDSYEQGDSSQQSLKGHLRNNFQKQLLSNKELILDKVYTHPKWNTQTKARSYSYPHCTGISQQDPESDSQGQGNGLFYSSGPQSWYPKANNQDFIPFTKKRVGVDRAFPLKPMVHRKSCSTGEAGTDGDHNVYPRPPEPREFSSRNFGVRNQGNFSVVGTVLAATQAEKAVANFDRTEWVQIRRLEAAGESLEEEIRRKQILLRGS”: “not soluble”. “GSPASGTSLSAAIHRTQLWFHGRISREESQRLIGQQGLVDGLFLVRESQRNPQGFVLSLCHLQKVKHYLILPSEEEGRLYFSMDDGQTRFTDLLQLVEFHQLNRGILPCLLRHCCTRVAL”: the “soluble on expression in E. coli” value was “soluble”. Turning to “MTARAIIIGAPRSGSGKTSVTIGLLRAFARRGVKVRGIKTGPDYIDPGFHAFATGTPGLNLDSWAMQPDLLRHLFSQQTEDAELILIESAMGLFDGIPVAENRTGSAADLARLFRIPVLLVLDVSGQSQTAATIAHGFAHYDPDVTMGAVVLNRAGSERHRTLCTEAIEKIGLPVVGCVLRDPSLILPERHLGLVQASEHPEIDPHIDRLADAMEKSIDLDTLFSLAAPVDMPCGSVAAAIAPPGQRIALAEDAAFTFLYPHLRRHWRAAGAEIVPFSPLADEAPDESCDICWLPGGYPELFAGKLADAVGFKAGITRFAETKPVHGECGGYMVLGERLEDAEGVIHAMTGLLSHATSFATRKMNLGYRQATIAADSPLGMAGDVLRGHEFHYARVIDPGRDQPFAHMADGQGRPLGPSGGRRGFVSGTFFHAIAKGGLEHHHHHH”, the “soluble on expression in E. coli” value is on record as “not soluble”. With “MSLATESDETSLDFPDHALERVRDILRLRRNFDISSYKDKYLKRRIAIRVRATRSVTADAYCDLVARNERELELLLKGLTIHVSQFFRNSSTFEALRGTVLPAIFDRLRREGRDSATFWSVGCASGEEPYSLAIILRDSFRESLKEFKVSLVATDIDGGILDAARAGIYSPERLAEVPAEVKDRYFRPMGERFVLDPTIREMVDFRRSDLFDPESSVESDLILCRNVLIYFERSEQARILRGFVSSLCTGGVLVLGKAETLVAEVRQRFTTLCPMERIYQKNRFSVYEGHHHHHH”, the “soluble on expression in E. coli” value is “soluble”.

Consider “MSVQLKCDAVNCVYNRSHLCSAEEIEVQGGETTGGDATFCGTFSSKSLGNFVSSLGNMNYSGSLKQAVSAEPIMDPKVHCNAVNCTYNDQRYCHADQVEIRNEVSHTAEETECQTFYPKMSLEHHHHHH”, for which the “soluble on expression in E. coli” value is “not soluble”. With “MSLKHGRTRLIGLIIADITNPYSVNVMSGIEAACREKGFTLLVCNTNNELDQELHYLDLLRSYQVEGIVVNAVGMREDGLNRLQQSALPMVLIDRKIPDFACDVVGLDNAQAATTATEHLVEKGFEAILFLSEPLGSVNTRRERLSAFRATLARHHGVVAENAEVQLNDGAMLDNVLRQFHARHRGMRKAVISANGALTLQVARALKRVGLIWGSDIGLLGFDELEWAELAGVGITTLKQPTWQIGYAAVEQVIRRIAGTNDPIRERVFSGELIVRGSTSREGHHHHHH”, the “soluble on expression in E. coli” value is given as “soluble”.
